Read-outs that look alike come from different tables or passages of the source.
B1: 4-hydroxy-tetrahydrodipicolinate reductase (DapB) from Mycobacterium tuberculosis HKBS1 (enzyme)
chain: MRVGVLGAKGKVGATMVRAVAAADDLTLSAELDAGDPLSLLTDGNTEVVIDFTHPDVVMGNLEFLIDNGIHAVVGTTGFTAERFQQVESWLVAKPNTSVLIAPNFAIGAVLSMHFAKQAARFFDSAEVIELHHPHKADAPSGTAARTAKLIAEARKGLPPNPDATSTSLPGARGADVDGIPVHAVRLAGLVAHQEVLFGTEGETLTIRHDSLDRTSFVPGVLLAVRRIAERPGLTVGLEPLLDLH
B2: 4-hydroxy-tetrahydrodipicolinate reductase (DapB) from Vibrio vulnificus strain CMCP6 (enzyme, UniProt Q8DEM0 1-269, looked up)
chain: MVRIAVAGAAGRMGRNLVKAAHHNPVAKVAAGSERPESSLVGVDLGELCGEGKFDVVVCDDLAKQIDQFDVIIDFTAPASTLNNLALCQQYGKSIVIGTTGFTEEQREQIDLVAQQVPVVMAPNYSVGVNLVFKLLEKAAKVMGDYCDIEIVEAHHRHKVDAPSGTAIGMGEAIAGAMGNKLSDVAVYAREGITGERTKDEIGFATIRAGDIVGEHTAMFADIGERVEITHKATDRMTFANGAVKAAVWLHEKPAGFYTMTDVLGLNDL

What was measured:
[1] = target: the molecule itself; test: crystal structure
[2] = target: the molecule itself; test: crystal structure; remark: listed apart in the source

Row | Protein | stoichiometry N [1] | stoichiometry N [2]
1 | B1 | 4 | 
2 | B2 |  | 4

Source: article PMC7708434 (Biochimica et biophysica acta. General subjects, 2020)
